IntAct's records for PubMed 18625701

B1: Brefeldin A-inhibited guanine nucleotide-exchange protein 2 (Homo sapiens), Q9Y6D5 (parent)
chain: MQESQTKSMFVSRALEKILADKEVKRPQHSQLRRACQVALDEIKAEIEKQRLGTAAPPKANFIEADKYFLPFELACQSKSPRVVSTSLDCLQKLIAYGHITGNAPDSGAPGKRLIDRIVETICSCFQGPQTDEGVQLQIIKALLTAVTSPHIEIHEGTILQTVRTCYNIYLASKNLINQTTAKATLTQMLNVIFTRMENQVLQEARELEKPIQSKPQSPVIQAAAVSPKFVRLKHSQAQSKPTTPEKTDLTNGEHARSDSGKVSTENGDAPRERGSSLSGTDDGAQEVVKDILEDVVTSAIKEAAEKHGLTEPERVLGELECQECAIPPGVDENSQTNGIADDRQSLSSADNLESDAQGHQVAARFSHVLQKDAFLVFRSLCKLSMKPLGEGPPDPKSHELRSKVVSLQLLLSVLQNAGPVFRTHEMFINAIKQYLCVALSKNGVSSVPDVFELSLAIFLTLLSNFKMHLKMQIEVFFKEIFLNILETSTSSFEHRWMVIQTLTRICADAQCVVDIYVNYDCDLNAANIFERLVNDLSKIAQGRSGHELGMTPLQELSLRKKGLECLVSILKCMVEWSKDLYVNPNHQTSLGQERLTDQEIGDGKGLDMARRCSVTSMESTVSSGTQTTVQDDPEQFEVIKQQKEIIEHGIELFNKKPKRGIQFLQEQGMLGTSVEDIAQFLHQEERLDSTQVGDFLGDSARFNKEVMYAYVDQLDFCEKEFVSALRTFLEGFRLPGEAQKIDRLMEKFAARYIECNQGQTLFASADTAYVLAYSIIMLTTDLHSPQVKNKMTKEQYIKMNRGINDSKDLPEEYLSSIYEEIEGKKIAMKETKELTIATKSTKQNVASEKQRRLLYNLEMEQMAKTAKALMEAVSHAKAPFTSATHLDHVRPMFKLVWTPLLAAYSIGLQNCDDTEVASLCLEGIRCAIRIACIFGMQLERDAYVQALARFSLLTASSSITEMKQKNIDTIKTLITVAHTDGNYLGNSWHEILKCISQLELAQLIGTGVKTRYLSGSGREREGSLKGHTLAGEEFMGLGLGNLVSGGVDKRQMASFQESVGETSSQSVVVAVDRIFTGSTRLDGNAIVDFVRWLCAVSMDELASPHHPRMFSLQKIVEISYYNMNRIRLQWSRIWHVIGDHFNKVGCNPNEDVAIFAVDSLRQLSMKFLEKGELANFRFQKDFLRPFEHIMKKNRSPTIRDMAIRCIAQMVNSQAANIRSGWKNIFAVFHQAASDHDGNIVELAFQTTCHIVTTIFQHHFPAAIDSFQDAVKCLSEFACNAAFPDTSMEAIRLIRFCGKYVSERPRVLQEYTSDDMNVAPGDRVWVRGWFPILFELSCIINRCKLDVRTRGLTVMFEIMKSYGHTFEKHWWQDLFRIVFRIFDNMKLPEQLSEKSEWMTTTCNHALYAICDVFTQFYEALNEVLLSDVFAQLQWCVKQDNEQLARSGTNCLENLVISNGEKFSPEVWDETCNCMLDIFKTTIPHVLLTWRPVGMEEDSSEKHLDVDLDRQSLSSIDKNPSERGQSQLSNPTDDSWKGRPYANQKLFASLLIKCVVQLELIQTIDNIVFYPATSKKEDAEHMVAAQQDTLDADIHIETEDQGMYKYMSSQHLFKLLDCLQESHSFSKAFNSNYEQRTVLWRAGFKGKSKPNLLKQETSSLACCLRILFRMYVDENRRDSWEEIQQRLLTVCSEALAYFITVNSESHREAWTSLLLLLLTKTLKINDEKFKAHASMYYPYLCEIMQFDLIPELRAVLRKFFLRIGVVYKIWIPEEPSQVPAALSPVW

Variants of: B1
Settings: with kap3_human PRKAR2B
With V534W the “effect of a mutation on the interaction” value was “disrupting interaction”.
For V289W, the “effect of a mutation on the interaction” value was “disrupting interaction”.
